From publication PMC3988186

Key:
beta-arrestin 1 = beta-arrestin 1 (UniProt P49407); details: 2'-F pyrimidines (2'F-C, 2'F-U); Kd assay buffer not stated separately; selection buffer F: 20 mM HEPES pH 7.4, 150 mM NaCl, 1 mM CaCl2, 1 mM MgCl2, 0.01% BSA, 37 C
beta-arrestin 2 = beta-arrestin 2 (UniProt P32121); details: 2'-F pyrimidines (2'F-C, 2'F-U); Kd assay buffer not stated separately; selection buffer F: 20 mM HEPES pH 7.4, 150 mM NaCl, 1 mM CaCl2, 1 mM MgCl2, 0.01% BSA, 37 C
Chain of beta-arrestin 2 (P32121 whole entry): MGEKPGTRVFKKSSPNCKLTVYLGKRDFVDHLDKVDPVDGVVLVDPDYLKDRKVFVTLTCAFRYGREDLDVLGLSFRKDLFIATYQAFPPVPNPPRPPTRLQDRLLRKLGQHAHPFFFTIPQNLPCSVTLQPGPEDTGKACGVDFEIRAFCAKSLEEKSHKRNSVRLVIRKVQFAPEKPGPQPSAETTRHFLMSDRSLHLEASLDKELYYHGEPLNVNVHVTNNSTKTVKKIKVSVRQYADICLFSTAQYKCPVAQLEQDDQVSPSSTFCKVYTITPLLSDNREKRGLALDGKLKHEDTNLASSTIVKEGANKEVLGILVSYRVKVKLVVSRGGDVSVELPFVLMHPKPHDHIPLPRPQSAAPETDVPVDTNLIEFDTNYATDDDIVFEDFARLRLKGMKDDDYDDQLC

Chain of beta-arrestin 1 (P49407 whole entry): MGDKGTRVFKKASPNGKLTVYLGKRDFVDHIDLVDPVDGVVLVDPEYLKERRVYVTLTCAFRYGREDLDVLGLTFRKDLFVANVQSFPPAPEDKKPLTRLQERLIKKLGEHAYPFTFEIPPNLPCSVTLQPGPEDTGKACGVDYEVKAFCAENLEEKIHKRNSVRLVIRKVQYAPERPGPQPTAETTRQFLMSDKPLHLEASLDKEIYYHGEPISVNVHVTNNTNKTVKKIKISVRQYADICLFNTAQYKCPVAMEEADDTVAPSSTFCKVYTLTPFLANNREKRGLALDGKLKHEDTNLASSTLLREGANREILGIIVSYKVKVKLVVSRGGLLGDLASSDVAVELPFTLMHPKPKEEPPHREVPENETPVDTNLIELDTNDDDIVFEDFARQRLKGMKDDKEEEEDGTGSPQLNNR

Sequence	Kd (beta-arrestin 1)	Kd (beta-arrestin 2)
GGGAGGACGAUGCGGAUCCUCGUCCCGUCACGGCAGAACCACGUCAGGCCUUCAACAGACGACUCGCUGAGGAUCCGAGA [beta-arr2A3]	748 nM	22 nM
GGGAGGACGAUGCGGAUUCCGUUAAGUAUCGCGUUAAACGCUAUGCGGACGCGUCAGACGACUCGCUGAGGAUCCGAGA [beta-arr2A1]	966 nM	19.8 nM
GGGAGGACGAUGCGGCCAGGUGUAGACAGACGUGAGAGAUUGACCUGGCAGCAGCCAGACGACUCGCUGAGGAUCCGAGA [beta-arr2A2]	2160 nM	4.13 nM
